Source: patent US20210100886A1, “WT1 CANCER ANTIGEN PEPTIDES AND PEPTIDE CONJUGATES COMPRISING THE PEPTIDES” (SUMITOMO DAINIPPON PHARMA CO., LTD., priority 2017, published 2021)
Where no end group is shown, it is not given here.

What follows are molecules tested on HLA-A*24:02 transgenic mouse (assay: In vivo CTL induction in HLA-A*24:02 transgenic mouse (IFNγ ELISPOT assay of splenocytes)). Conditions: peptide 280 μg per site, intradermal Montanide ISA 51 VG emulsion, two sites; one week after administration.
Experimental: The HLA-A*24:02 transgenic mouse (C57BL/6CrHLA-A2402/K^b) is a mouse that expresses a chimeric HLA of a human MHC, HLA-A*24:02 with a mouse MHC, H-2K^b.
The solution was diluted with water for injection to a concentration of 10 mg/mL, and then converted to an emulsion by addition of an equal volume of Montanide ISA 51 VG. […] The concentrations of DMSO contained in emulsions were also fixed. One week after the administration, the mice were sacrificed with CO2 gas. Splenocytes were harvested from spleens removed from the mice. For detecting IFNγ-producing splenocytes, an IFNγ ELISPOT assay kit was used. In particular, an ELISPOT plate was treated with an anti-mouse-IFNγ antibody on the day before preparation of the splenocyte samples. On the next day, the plate was blocked by treatment with an RPMI 1640 medium with 10% FBS. To the blocked ELISPOT plate, the splenocyte samples from the HLA-A*24:02 transgenic mice were added at 2.5×10^5 cells/well. For in vitro stimulation of the cells, the peptide of SEQ ID NO: 4 was dissolved in DMSO at a concentration of 40 mg/ml, diluted with RPMI 1640 with 10% FBS to 40 μg/ml, and added to the splenocyte-containing wells at a final concentration of 10 μg/ml. The plate was incubated for 18-20 hours at 37° C. under an atmosphere of 5% CO2. Then, after removal of the culture medium from the wells, the ELISPOT plate was subjected to treatment for cell staining in accordance with the manufacturer's protocol. Stained spots were counted on ImmunoSpot S6 Analyzer (C.T.L.). […]

In the case of QCYTWNQMNL [SEQ ID NO: 30], the “induction of CTLs responsive to the peptide of SEQ ID NO: 4 (IFNγ-producing splenocytes)” value is reported as “induced CTLs responsive to the peptide of SEQ ID NO: 4”.
For KCYTWNQMNL [SEQ ID NO: 36], the “induction of CTLs responsive to the peptide of SEQ ID NO: 4 (IFNγ-producing splenocytes)” value was “induced CTLs responsive to the peptide of SEQ ID NO: 4”.
With YCYTWNQMNL [SEQ ID NO: 40] the “induction of CTLs responsive to the peptide of SEQ ID NO: 4 (IFNγ-producing splenocytes)” value was “induced CTLs responsive to the peptide of SEQ ID NO: 4”.
RCYTWNQMNL [SEQ ID NO: 28] was tested, and the “induction of CTLs responsive to the peptide of SEQ ID NO: 4 (IFNγ-producing splenocytes)” value was “induced CTLs responsive to the peptide of SEQ ID NO: 4”.
For FCYTWNQMNL [SEQ ID NO: 38], the “induction of CTLs responsive to the peptide of SEQ ID NO: 4 (IFNγ-producing splenocytes)” value was “induced CTLs responsive to the peptide of SEQ ID NO: 4”.
HCYTWNQMNL [SEQ ID NO: 34] was tested, and the “induction of CTLs responsive to the peptide of SEQ ID NO: 4 (IFNγ-producing splenocytes)” value was “induced CTLs responsive to the peptide of SEQ ID NO: 4”.
For ECYTWNQMNL [SEQ ID NO: 32], the “induction of CTLs responsive to the peptide of SEQ ID NO: 4 (IFNγ-producing splenocytes)” value was “induced CTLs responsive to the peptide of SEQ ID NO: 4”.

Each molecule was assayed against endoplasmic reticulum aminopeptidase 1 (UniProt Q9NZ08 1-941, limits assumed) (assay: cell-based or functional assay). Conditions: not given.
endoplasmic reticulum aminopeptidase 1, sequence (Q9NZ08 whole entry): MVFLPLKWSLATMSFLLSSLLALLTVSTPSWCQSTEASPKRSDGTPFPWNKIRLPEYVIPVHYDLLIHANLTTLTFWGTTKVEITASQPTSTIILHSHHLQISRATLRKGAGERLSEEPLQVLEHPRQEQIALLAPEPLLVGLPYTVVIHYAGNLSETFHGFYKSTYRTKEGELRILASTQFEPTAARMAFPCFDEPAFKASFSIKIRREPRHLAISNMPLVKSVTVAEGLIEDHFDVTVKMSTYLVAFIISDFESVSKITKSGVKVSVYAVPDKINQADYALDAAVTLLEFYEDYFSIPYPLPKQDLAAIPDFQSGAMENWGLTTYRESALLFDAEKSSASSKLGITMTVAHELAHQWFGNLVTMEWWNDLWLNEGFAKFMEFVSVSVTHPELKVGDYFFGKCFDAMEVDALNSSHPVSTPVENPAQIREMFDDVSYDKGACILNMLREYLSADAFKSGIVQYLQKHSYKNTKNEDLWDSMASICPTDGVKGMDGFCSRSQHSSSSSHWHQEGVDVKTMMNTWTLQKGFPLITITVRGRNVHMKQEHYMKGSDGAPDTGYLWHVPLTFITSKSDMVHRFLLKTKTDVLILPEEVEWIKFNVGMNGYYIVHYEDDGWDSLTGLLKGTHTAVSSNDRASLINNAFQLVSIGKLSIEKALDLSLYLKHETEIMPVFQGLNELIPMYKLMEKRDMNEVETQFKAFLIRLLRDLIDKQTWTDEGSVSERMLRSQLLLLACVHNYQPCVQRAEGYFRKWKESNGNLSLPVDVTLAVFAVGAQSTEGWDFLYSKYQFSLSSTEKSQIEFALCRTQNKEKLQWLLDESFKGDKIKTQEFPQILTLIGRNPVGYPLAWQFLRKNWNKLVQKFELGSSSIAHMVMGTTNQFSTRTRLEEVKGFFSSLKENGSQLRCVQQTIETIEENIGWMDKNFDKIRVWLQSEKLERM

Compared with ACYTWNQMNL (also: TFA salt) [peptide ACYTWNQMNL (SEQ ID NO: 55)], NCYTWNQMNL (also: TFA salt) [peptide NCYTWNQMNL (SEQ ID NO: 61)] is higher in “Production Rate of SEQ ID NO: 4” value: 10% for the first, 29.1% for the second.

Compared with PCYTWNQMNL (also: TFA salt) [peptide PCYTWNQMNL (SEQ ID NO: 62)], QCYTWNQMNL (also: TFA salt) [peptide QCYTWNQMNL (SEQ ID NO: 30)] is higher in “Production Rate of SEQ ID NO: 4” value: 11.1% for the first, 32.5% for the second.

Compared with RCYTWNQMNL (also: TFA salt) [peptide RCYTWNQMNL (SEQ ID NO: 28)], SCYTWNQMNL (also: TFA salt) [peptide SCYTWNQMNL (SEQ ID NO: 63)] is lower in “Production Rate of SEQ ID NO: 4” value: 49.2% for the first, 24.6% for the second.

Going from TCYTWNQMNL (also: TFA salt) [peptide TCYTWNQMNL (SEQ ID NO: 64)] to VCYTWNQMNL (also: TFA salt) [peptide VCYTWNQMNL (SEQ ID NO: 65)], the “Production Rate of SEQ ID NO: 4” value falls from 15.6% to 5.1%.

Compared with WCYTWNQMNL (also: TFA salt) [peptide WCYTWNQMNL (SEQ ID NO: 66)], YCYTWNQMNL (also: TFA salt) [peptide YCYTWNQMNL (SEQ ID NO: 40)] is higher in “Production Rate of SEQ ID NO: 4” value: 5.2% for the first, 35.2% for the second.

Compared with CCYTWNQMNL (cysteine pairing not given here; also: TFA salt) [peptide CCYTWNQMNL (SEQ ID NO: 10)], ECYTWNQMNL (also: TFA salt) [peptide ECYTWNQMNL (SEQ ID NO: 32)] is higher in “Production Rate of SEQ ID NO: 4” value: 20.3% for the first, 32.5% for the second.

First: FCYTWNQMNL (also: TFA salt) [peptide FCYTWNQMNL (SEQ ID NO: 38)]
Second: HCYTWNQMNL (also: TFA salt) [peptide HCYTWNQMNL (SEQ ID NO: 34)]
The “Production Rate of SEQ ID NO: 4” value of the first is lower: 18.4% for the first, 24.4% for the second.

First: ICYTWNQMNL (also: TFA salt) [peptide ICYTWNQMNL (SEQ ID NO: 58)]
Second: KCYTWNQMNL (also: TFA salt) [peptide KCYTWNQMNL (SEQ ID NO: 36)]
The “Production Rate of SEQ ID NO: 4” value of the first is lower: 2.8% for the first, 45% for the second.

Compared with LCYTWNQMNL (also: TFA salt) [peptide LCYTWNQMNL (SEQ ID NO: 59)], MCYTWNQMNL (also: TFA salt) [peptide MCYTWNQMNL (SEQ ID NO: 60)] is higher in “Production Rate of SEQ ID NO: 4” value: 5.8% for the first, 32.1% for the second.
